Assays:
[1] = target: T1, US28 protein from HCMV strain Merlin on HEK Phoenix Ampho cells (Human cytomegalovirus, UniProt P69332, S330G); experiment: Flow cytometry, HEK Phoenix Ampho cells transfected with US28 (Merlin); type: binding; details: mock subtracted, fold-difference minus 1, sign = increase or decrease
T1 construct: expressed in transfected cells; host or cells: HEK Phoenix Ampho (ATCC-CRL-3213)
Description: (§1) ii. Materials: • Cells: HEK Phoenix Ampho (ATCC-CRL-3213), p 21. • Staining buffer: PBS with 1% BSA, 2 mM EDTA. • Plasmid: Encoding US28 protein from different HCMV strains: DB; TB40/E; Merlin; and VHL/E. • Blocking: Human TruStain FcX™ (ref 422302). • Live Dead: Invitrogen™ eBioscience™ Fixable Viability Dye eFluor™ 780 (ref 13539140). • Primary antibodies: 7B1F3 (6.76 nM=1 μg/ml); hum7B1F3 (6.76 nM=1 μg/ml).
(§2) The day before transfection, HEK Ampho cells were seeded in a 1×6-well plate with 1×10^6 live cells/well, 2 mL/well. Seeded 4 wells for HEKPhoenix_plasmids. Seeded 2 wells for HEKPhoenix_Mock transfected. Incubated the cells in a 37° C. incubator with >80% relative humidity and 5% CO2.
(§3) After 1 day, cells will have adhered and reached >60% confluency. Removed 700 uL media from each well prior to transfection. Allowed X-tremeGENE™ HP DNA Transfection Reagent, DNA and diluent Opti-MEM® I Reduced Serum Medium to warm to +15° C. to +25° C., and vortexed gently. Placed 100 μL diluent in a sterile tube for each condition. Added 1 μg plasmid DNA. Pipetted gently to mix (DNA was not added for the mock condition): • DB (683.3 ng/μL): 1.46 μL • TB40/E (742.05 ng/μL): 1.35 μL • Merlin (70.78 ng/μL): 14.13 μL • VHL/E (51.87 ng/μL): 19.28 μL
(§4) Added 3 μL X-tremeGENE™ HP DNA Transfection Reagent to the diluted DNA. (3:1 ratio of reagent to DNA). Pipetted gently to mix, then: • 1. […]

[2] = target: T2, US28 protein from HCMV strain TB40/E on HEK Phoenix Ampho cells (Human cytomegalovirus, UniProt P69332, A8T/D15E/E18L/V24T); experiment: Flow cytometry, HEK Phoenix Ampho cells transfected with US28 (TB40/E); type: binding; details: mock subtracted, fold-difference minus 1, sign = increase or decrease
T2 construct: expressed in transfected cells; host or cells: HEK Phoenix Ampho (ATCC-CRL-3213)
Description: as §1, §2, §3, §4

[3] = system: HEKPhoenix_Mock transfected cells; experiment: Flow cytometry, HEKPhoenix Mock transfected cells; type: binding, human; details: antibody concentration 6.76 nM, Myc tag detection
Description: as §1, §2, §3, §4

[4] = target: T3, US28 protein from HCMV strain DB on HEK Phoenix Ampho cells (Human cytomegalovirus, UniProt P69332, D170N/D19A); experiment: Flow cytometry, HEK Phoenix Ampho cells transfected with US28 (DB); type: binding; details: mock subtracted, fold-difference minus 1, sign = increase or decrease
T3 construct: expressed in transfected cells; host or cells: HEK Phoenix Ampho (ATCC-CRL-3213)
Description: as §1, §2, §3, §4

B1: 7B1F3-Myc: 7B1F3 labelled with a Myc tag (antibody, V domains shown)
VH: EVQLQQSGAELAKPGASVKMSCKASGYTFTNYWMHWVKQRPGQGLEWIGYVNPRTGYTEYNQKFKDKATLTADKSSRTAYMQLSSLTSEDSAVYSCARILNGTGFAYWGQGTLVTVSA
VL: DIVLTQSPSSLTVSVGEKFTMSCKSSQSLLYSSNQKNYLAWYQQKPGQSPKLLIYWASTRESGVPDRFTGSGSGTDFTLAISSVKPEDLAIYYCQQYYSFPLTFGAGTKLEIK
- Variation in binding, relative to determined binding to US28 as encoded by VHL/E; Merlin [1]: +0.21
- Variation in binding, relative to determined binding to US28 as encoded by VHL/E; TB40/E [2]: +0.14
- Preliminary Binding Data, Mock [3]: 0.06
- Variation in binding, relative to determined binding to US28 as encoded by VHL/E; DB [4]: +0.64
